We go through eleven molecules from patent publication US20230052369A1 (Zymeworks, published 2023).

Where a chain is given by its changes, count along the chain named.

B1: v28688 (antibody, human IgG1, kappa, L234A L235A, V domains shown)
VH: EVQLVESGGGLVQPGGSLRLSCAASGFTFSEFGMHWVRQAPGKGLEWVAYISSGGSTIYYADSVKGRFTISRDNAKNSLYLQMNSLRAEDTAVYYCARDWVDYWGQGTLLTVSS
VL: EIVLTQSPATLSLSPGERATLSCKASENVGSYVSWYQQKPGQAPRLLIYGASNRYTGVPARFSGSGSGTDFTLTISSLEPEDFAVYYCGQSYSYPLTFGGGTKVEIKR
notes: also called humanized 1G1 H2L2
B2: v28684 (antibody, human IgG1, kappa, L234A L235A, V domains shown)
VH: B1 VH with A49S, L110V
VL: B1 VL
notes: also called humanized 1G1 H1L2
B3: v28686 (antibody, human IgG1, kappa, L234A L235A, V domains shown)
VH: B1 VH with A49S, L110V
VL: B1 VL with L4M, A19V, L78V, F83L, V104L, I106L
notes: also called humanized 1G1 H1L4
B4: v28683 (antibody, human IgG1, kappa, L234A L235A, V domains shown)
VH: B1 VH with A49S, L110V
VL: B1 VL with V58I
notes: also called humanized 1G1 H1L1
B5: v28685 (antibody, human IgG1, kappa, L234A L235A, V domains shown)
VH: B1 VH with A49S, L110V
VL: B1 VL with L4M, A19V, L78V, V104L, I106L
notes: also called humanized 1G1 H1L3
B6: v28726 (antibody, human IgG1, kappa, L234A L235A, V domains shown)
VH: EVQLVESGGGLIQPGGSLRLSCAVSGFSLTTYAISWVRQAPGKGLEWLGIIWPGGGTNYADSVKGRFTISKDNSKNTLYLQMNSLRAEDTAVYYCARGAGTWYFDVWGQGTLVTVSS
VL: DIQMTQSPSSLSASVGDRVTITCSASQGISNYLNWYQQKPGKTVKLLIYYTSSLHSGVPSRFSGSGSGTDYTLTISSLQPEDIATYYCQQYSKFPWTFGQGTKLEIKR
notes: also called humanized 1C8 H7L3
B7: v28728 (antibody, human IgG1, kappa, L234A L235A, V domains shown)
VH: B6 VH with L20I, V63L, F67L, L78V, A87T
VL: B6 VL with T43A, V44P
notes: also called humanized 1C8 H8L2
B8: v28727 (antibody, human IgG1, kappa, L234A L235A, V domains shown)
VH: B6 VH with L20I, V63L, F67L, L78V, A87T
VL: B6 VL with T43A, V44P, Y71F, L73F, L104V
notes: also called humanized 1C8 H8L1
B9: v28730 (antibody, human IgG1, kappa, L234A L235A, V domains shown)
VH: B6 VH with L20I, V63L, F67L, L78V, A87T
VL: B6 VL
notes: also called humanized 1C8 H8L3
B10: v28696 (antibody, human IgG1, kappa, L234A L235A, V domains shown)
VH: QVQLQESGPGLVKPSETLSLTCTVSGFSLISYGVHWIRQPPGKGLEWIGVIWSGGSTDYNPSLKSRVTISVDTSKNQFSLKLSSVTAADTAVYYCARNPLTATVMDYWGQGTLVTVSS
VL: DIQMTQSPSSLSASVGDRVTITCRASQNVGTNVAWYQQKPGKAPKALIYSASYRDSGVPSRFSGSGSGTDFTLTISSLQPEDFATYYCQQYNSYPLTFGGGTKVEIKR
notes: also called humanized 5G8 H1L2
B11: v28697 (antibody, human IgG1, kappa, L234A L235A, V domains shown)
VH: B10 VH
VL: B10 VL with I21V, L78V, V104L
notes: also called humanized 5G8 H1L3

For the first test, the target named is T1, purified human monomeric 4-1BB (human, UniProt Q07011 24-186).
T1 construct: the assay used the 4-1BB part released by Factor Xa with the Fc removed; also called h4-1BB; human 4-1BB
T1 sequence (Q07011 other isoform, or with tags, fused parts or gaps limits assumed): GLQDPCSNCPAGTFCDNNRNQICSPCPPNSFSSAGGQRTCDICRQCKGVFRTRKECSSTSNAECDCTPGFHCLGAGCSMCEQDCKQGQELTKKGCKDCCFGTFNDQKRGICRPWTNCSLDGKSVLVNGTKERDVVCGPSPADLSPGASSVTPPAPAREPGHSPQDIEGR
As to the kind of experiment: SPR, mean n=3.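 Also: antibodies captured on anti-human Fc chip, 4-1BB injected as five-point two-fold series from 40 nM by single-cycle kinetics at 25 °C, sensorgrams fitted to 1:1 Langmuir model.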 On the technique in general: SPR reads the build-up and loss of mass on a sensor chip optically.
Description: The anti-human Fc surface was prepared on a CMS Series S sensorchip by standard amine coupling methods as described by the manufacturer (GE Healthcare). Briefly, immediately after EDC/NHS activation, a 25 μg/mL solution of anti-human Fc in 10 mM NaOAc pH 4.5 was injected at a flow rate of 10 μL/min for 420 s until approximately 2000 resonance units (RUs) were immobilized on all four flow cells. The remaining active groups were quenched by a 420 s injection of 1M ethanolamine at 10 μL/min.
Antibodies for analysis were captured onto the anti-Fc surface by injecting 5 μg/mL solutions at a flow rate of 10 μL/min for 60 s. Using single-cycle kinetics, five concentrations of a two-fold dilution series of 4-1BB starting at 40 nM (for both supernatant and purified antibody runs) with a blank buffer control were sequentially injected at 40 μL/min for 180 s with a 600 s dissociation phase, resulting in a set of sensorgrams with a buffer blank reference. Experiments were performed at a constant temperature of 25° C. The anti-human Fc surfaces were regenerated to prepare for the next injection cycle by one pulse of 10 mM Glycine/HCl pH 1.5 for 120 s at 40 μL/min. Blank-subtracted sensorgrams were analyzed using Biacore™ T200 Evaluation Software v3.0. The blank-subtracted sensorgrams were then fit to the 1:1 Langmuir binding model.
Protein material post protein-A or SEC was assessed for binding to human 4-1BB.
Broadly, the Kd is the equilibrium constant for the complex coming apart. Read a high Kd as lower affinity. B1 gave a Kd of 69.2 nM. On the same count and under the same terms, with B2 the figure was 38.5 nM; with B3, 31.1 nM; with B4, 42.3 nM. Same read-out and setting: with B5 the figure was 31.2 nM; with B6, 763 nM; with B7, 1420 nM. Still for that read-out and setting: for B8 the value was 813 nM; for B9, 762 nM. For B10, the Kd is 574 nM.

Consider B11, for which the affinity, expressed as Kd, was 735 nM.

For a further test, the target named is T2, human 4-1BB, full-length, expressed on cells (human, UniProt Q07011 24-255).
T2 construct: also called CD137; TNFRSF9
T2 sequence (Q07011 24-255): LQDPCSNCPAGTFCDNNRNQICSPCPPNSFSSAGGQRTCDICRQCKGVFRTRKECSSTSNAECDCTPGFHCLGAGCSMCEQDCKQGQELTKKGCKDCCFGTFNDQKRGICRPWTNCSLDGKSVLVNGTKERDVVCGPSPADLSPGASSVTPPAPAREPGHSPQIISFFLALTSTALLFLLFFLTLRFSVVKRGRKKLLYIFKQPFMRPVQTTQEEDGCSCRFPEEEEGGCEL
Kind of test: flow cytometry, Jurkat-4-1BB. On the technique in general: In flow cytometry, cells or beads pass a laser one at a time.
Description: Jurkat T cells engineered to stably express human 4-1BB were used to measure binding of antibodies to human 4-1BB. Antibodies were diluted in 5 μl FB (PBS 2% FCS) 1:3 from stock in wells of a 96 V-well plate, and cells added on top. The cells were then left on ice for 30 minutes for the antibodies to bind. The cells were then washed twice in FB, and then incubated in 50 μl FB containing 2 μg/ml goat anti-human Alexa647 antibody (Jackson Immunoresearch). The cells were then left on ice for a further 20 minutes, washed twice in FB, resuspended in 100 μl FB and analysed on a BD Fortessa™ X20. The subsequent data files were analysed using FlowJo™ and Prism 7 (GraphPad) using a four-parameter non-linear regression.
A word on the EC50: it is the concentration that produces a half-maximal response. The low end stands for higher potency in that assay, the high end for lower potency in that assay. B1: the response was half-maximal at 0.36 nM (EC50). For the molecule B2, the EC50 turned out to be 0.247 nM.

On to B4, for which a half-maximal response (EC50) required 0.223 nM. On the same count and under the same terms, with B5 the figure was 0.0551 nM; with B7, 713 nM; with B8, 24.2 nM. Regarding B9, a half-maximal effect (EC50) was put at 88.7 nM.
